Experimental data reported in US20230056252A1 (Gilead, published 2023).
Like-named read-outs stand apart in the source and are kept apart here.

Assays:
[1] = biological target: T1, biotinylated CD3 epsilon:delta heterodimer protein (Amsbio AMS.CDD-H52WO) (Homo sapiens (Human), UniProt P07766 23-126; P04234 22-105); assay: BLI (Octet), CD3 on SA sensor, Fab analyte
T1 construct: also called CD3 heterodimer
Method: (§1) The CD3 binding kinetics of the purified huSP34 Fabs were determined using OctetRed384 (Pall ForteBio, CA) biolayer interferometry (BLI). […] Streptavidin (SA) coated biosensors tips (Pall ForteBio, CA) were used to capture biotinylated CD3 epsilon: delta heterodimer and typical immobilization levels captured on the SA sensors were 1 nm which approximately translates to 300 ng/ml of captured protein. For kinetic measurements biosensors were first pre-wetted with assay buffer for 10 minutes to remove protective sucrose coating followed by the recommended regeneration conditions for standardization of the biosensor surface for the experiment. In order to load the biosensors with antigen, 300 ng/ml of biotinylated CD3 epsilon: delta heterodimer protein (Amsbio AMS.CDD-H52WO) was immobilized on the SA sensor for 900 seconds. The CD3 loaded biosensors were then blocked with 20 ug/ml biocytin (sigma) for 200 seconds and then dipped into assay buffer containing wells for 200 seconds to remove any non-specific protein or unbound CD3 heterodimer.
(§2) CD3 loaded and biocytin blocked biosensors were then transferred into fresh assay buffer for 200 seconds to collect a baseline read. Kinetic measurements for anti-CD3 Fab and bispecific antibody binding were performed by dipping the CD3-coated biosensors into wells containing multiple concentrations of Fab or Ab (0-300 nM) for 100 seconds followed by a 300 second dissociation time by transferring the biosensors into assay buffer containing wells. The CD3 loaded sensors were then regenerated for the next kinetic measurement. Biosensors were generated by removing bound Fabs or Ab from immobilized CD3 on SA biosensors. Regeneration conditions used consisted of 3 cycles of 5 seconds of dipping the biosensors in Regeneration Buffer (10 mM Glycine HCl pH 1.5) followed by Assay Buffer (10 mM sodium phosphate pH 7.4, 140 mM Sodium Chloride, 0.005% Tween20 with 0.2% BSA).

[2] = biological target: T1, biotinylated CD3 epsilon:delta …; assay: BLI (Octet), CD3 on SA sensor, Fab analyte; remark: listed apart in the source
Method: as §1, §2

[3] = biological target: T2, CD3 expressed on cell-surface of primary human T cells (human, UniProt P07766 23-207; P04234 22-171); assay: flow cytometry competition vs murine SP34-AF488 on human T cells, n = 1
T2 construct: also called cell-surface CD3; human CD3
Method: Binding of humanized SP34 Fab variants to CD3 expressed on cell-surface of primary human T cells was evaluated in a flow cytometry-based competition assay.

B1: huSP34.3.8 Fab-HF (Fab, V domains shown)
VH: EVQLVESGGGLVQPGGSLRLSCAASGFTFNTYAMNWVRQAPGKGLEWVGRIRSKYNNYATYYADSVKGRFTISRDDSKNSLYLQMNSLRTEDTAVYYCVRHGNFGHSYVSWFAYWGQGTLVTVSS
VL: QAVVTQEPSLTVSPGGTVTLTCGSSTGAVTTGHYANWVQQKPGQAPRGLIGGTNKRAPGVPARFSGSLLGGKAALTISGAQPEDEAEYYCALWYSNRWVFGGGTKLTVL
notes: also called HC3+LC8
[1]
  Kd: 4.4 nM
  koff: 0.00113 s⁻¹
  kon: 255000 M⁻¹ s⁻¹
[2]
  Kd: 1.9 nM
  koff: 0.00024 s⁻¹
  kon: 131000 M⁻¹ s⁻¹

B2: huSP34.9.5 Fab-HF (Fab, V domains shown)
VH: EVQLVESGGGLVQPGGSLRLSCAASGFTFSDYAMNWVRQAPGKGLEWVGRTRSKYNSYATYYAASVKGRFTISRDDSKNSLYLQMNSLKTEDTAVYYCVRHGNFGNSYVSWFAVWGQGTLVTVSS
VL: QAVVTQEPSLTVSPGGTVTLTCGSSTGAVTTGHYANWVQQKPGQAPRGLIGGTSNRAPWTPARFSGSLLGGKAALTLSGAQPEDEAEYYCALWYSARWVFGGGTKLTVL
[3]
  IC50: > 20 µg/mL

B3: huSP34.6.4 Fab-HF (Fab, V domains shown)
VH: EVQLVESGGGLVQPGGSLRLSCAASGFTFSTYAMNWVRQAPGKGLEWVGRIRSKYNNYATYYADSVKGRFTISRDNSKNTLYLQMNSLRAEDTAMYYCVRHGNFGNSYVSWFAVWGQGTLVTVSS
VL: QAVVTQEPSLTVSPGGTVTLTCGSSTGAVTTSHYANWVQQKPGQAPRGLIGGTSKRAPWTPARFSGSLLGGKAALTLSGAQPEDEAEYYCALWYSALWVFGGGTKLTVL
[3]
  IC50: > 20 µg/mL

B4: huSP34.8.5 Fab-HF (Fab, V domains shown)
VH: EVQLVESGGGLVQPGGSLRLSCAASGFTFSDYAMNWVRQAPGKGLEWVGRTRSKYNNYATYYAASVKGRFTISRDDSKNSLYLQMNSLKTEDTAVYYCVRHGNFGHSYVSWFAVWGQGTLVTVSS
VL: QAVVTQEPSLTVSPGGTVTLTCGSSTGAVTTGHYANWVQQKPGQAPRGLIGGTSNRAPWTPARFSGSLLGGKAALTLSGAQPEDEAEYYCALWYSARWVFGGGTKLTVL
[3]
  IC50: > 20 µg/mL

B5: huSP34.7.1 Fab-HF (Fab, V domains shown)
VH: EVQLVESGGGLVQPGGSLRLSCAASGFTFSDYAMNWVRQAPGKGLEWVGRTRSKYNNYATYYAASVKGRFTISRDDSKNSLYLQMNSLKTEDTAVYYCVRHGNFGNSYVSWFAVWGQGTLVTVSS
VL: QAVVTQEPSLTVSPGGTVTLTCRSSTGAVTTSNYANWVQQKPGQAPRGLIGGTNKRAPWTPARFSGSLIGDKAALTLSGAQPEDEAEYYCALWYSNLWVFGGGTKLTVL
[3]
  IC50: > 20 µg/mL

B6: huSP34.9.4 Fab-HF (Fab, V domains shown)
VH: EVQLVESGGGLVQPGGSLRLSCAASGFTFSDYAMNWVRQAPGKGLEWVGRTRSKYNSYATYYAASVKGRFTISRDDSKNSLYLQMNSLKTEDTAVYYCVRHGNFGNSYVSWFAVWGQGTLVTVSS
VL: QAVVTQEPSLTVSPGGTVTLTCGSSTGAVTTSHYANWVQQKPGQAPRGLIGGTSKRAPWTPARFSGSLLGGKAALTLSGAQPEDEAEYYCALWYSALWVFGGGTKLTVL
[3]
  IC50: > 20 µg/mL

B7: huSP34.13.9 Fab-HF (Fab, V domains shown)
VH: EVQLVESGGGLVQPGGSLRLSCAASGFTFSTYAMNWVRQAPGKGLEWVGRIRSKYNNYATYYAASVKGRFTISRDDSKNTLYLQMNSLRTEDTAVYYCVRHGNFGHSYVSWFAYWGQGTLVTVSS
VL: QAVVTQPPSLTVSPGGTVTLTCGSSTGAVTTGHYANWVQQKPGQAPRGLIGGTNKRAPGVPARFSGSLSGGKAALTISGAQPEDEAEYYCALWYSNLWVFGGGTKLTVL
notes: also called HC13+LC9
[1]
  Kd: 2.7 nM
  koff: 0.00361 s⁻¹
  kon: 1.38e+06 M⁻¹ s⁻¹

B8: huSP34.9.2 Fab-HF (Fab, V domains shown)
VH: EVQLVESGGGLVQPGGSLRLSCAASGFTFSDYAMNWVRQAPGKGLEWVGRTRSKYNSYATYYAASVKGRFTISRDDSKNSLYLQMNSLKTEDTAVYYCVRHGNFGNSYVSWFAVWGQGTLVTVSS
VL: QAVVTQEPSLTVSPGGTVTLTCGSSTGAVTTSNYANWVQQKPGQAPRGLIGGTSNRAPWTPARFSGSLLGGKAALTLSGAQPEDEAEYYCALWYSNLWVFGGGTKLTVL
[3]
  IC50: > 20 µg/mL

B9: huSP34.13.8 Fab-HF (Fab, V domains shown)
VH: EVQLVESGGGLVQPGGSLRLSCAASGFTFSTYAMNWVRQAPGKGLEWVGRIRSKYNNYATYYAASVKGRFTISRDDSKNTLYLQMNSLRTEDTAVYYCVRHGNFGHSYVSWFAYWGQGTLVTVSS
VL: QAVVTQEPSLTVSPGGTVTLTCGSSTGAVTTGHYANWVQQKPGQAPRGLIGGTNKRAPGVPARFSGSLLGGKAALTISGAQPEDEAEYYCALWYSNRWVFGGGTKLTVL
notes: also called HC13+LC8
[1]
  Kd: 2.5 nM
  koff: 0.00216 s⁻¹
  kon: 933000 M⁻¹ s⁻¹

B10: huSP34.3.10 Fab-HF (Fab, V domains shown)
VH: EVQLVESGGGLVQPGGSLRLSCAASGFTFNTYAMNWVRQAPGKGLEWVGRIRSKYNNYATYYADSVKGRFTISRDDSKNSLYLQMNSLRTEDTAVYYCVRHGNFGHSYVSWFAYWGQGTLVTVSS
VL: QAVVTQPPSLTVSPGGTVTLTCGSSTGAVTTGHYANWVQQKPGQAPRGLIGGTNKRAPGVPARFSGSLSGGKAALTISGAQPEDEAEYYCALWYSNRWVFGGGTKLTVL
notes: also called HC3+LC10
[1]
  Kd: 2 nM
  koff: 0.00137 s⁻¹
  kon: 683000 M⁻¹ s⁻¹
[2]
  Kd: 2.3 nM
  koff: 0.000235 s⁻¹
  kon: 142000 M⁻¹ s⁻¹

B11: huSP34.8.2 Fab-HF (Fab, V domains shown)
VH: EVQLVESGGGLVQPGGSLRLSCAASGFTFSDYAMNWVRQAPGKGLEWVGRTRSKYNNYATYYAASVKGRFTISRDDSKNSLYLQMNSLKTEDTAVYYCVRHGNFGHSYVSWFAVWGQGTLVTVSS
VL: QAVVTQEPSLTVSPGGTVTLTCGSSTGAVTTSNYANWVQQKPGQAPRGLIGGTSNRAPWTPARFSGSLLGGKAALTLSGAQPEDEAEYYCALWYSNLWVFGGGTKLTVL
[3]
  IC50: > 20 µg/mL

B12: huSP34.6.5 Fab-HF (Fab, V domains shown)
VH: EVQLVESGGGLVQPGGSLRLSCAASGFTFSTYAMNWVRQAPGKGLEWVGRIRSKYNNYATYYADSVKGRFTISRDNSKNTLYLQMNSLRAEDTAMYYCVRHGNFGNSYVSWFAVWGQGTLVTVSS
VL: QAVVTQEPSLTVSPGGTVTLTCGSSTGAVTTGHYANWVQQKPGQAPRGLIGGTSNRAPWTPARFSGSLLGGKAALTLSGAQPEDEAEYYCALWYSARWVFGGGTKLTVL
[3]
  IC50: > 20 µg/mL

B13: huSP34.8.1 Fab-HF (Fab, V domains shown)
VH: EVQLVESGGGLVQPGGSLRLSCAASGFTFSDYAMNWVRQAPGKGLEWVGRTRSKYNNYATYYAASVKGRFTISRDDSKNSLYLQMNSLKTEDTAVYYCVRHGNFGHSYVSWFAVWGQGTLVTVSS
VL: QAVVTQEPSLTVSPGGTVTLTCRSSTGAVTTSNYANWVQQKPGQAPRGLIGGTNKRAPWTPARFSGSLIGDKAALTLSGAQPEDEAEYYCALWYSNLWVFGGGTKLTVL
[3]
  IC50: > 20 µg/mL

B14: huSP34.9.1 Fab-HF (Fab, V domains shown)
VH: EVQLVESGGGLVQPGGSLRLSCAASGFTFSDYAMNWVRQAPGKGLEWVGRTRSKYNSYATYYAASVKGRFTISRDDSKNSLYLQMNSLKTEDTAVYYCVRHGNFGNSYVSWFAVWGQGTLVTVSS
VL: QAVVTQEPSLTVSPGGTVTLTCRSSTGAVTTSNYANWVQQKPGQAPRGLIGGTNKRAPWTPARFSGSLIGDKAALTLSGAQPEDEAEYYCALWYSNLWVFGGGTKLTVL
[3]
  IC50: > 20 µg/mL

B15: huSP34.8.4 Fab-HF (Fab, V domains shown)
VH: EVQLVESGGGLVQPGGSLRLSCAASGFTFSDYAMNWVRQAPGKGLEWVGRTRSKYNNYATYYAASVKGRFTISRDDSKNSLYLQMNSLKTEDTAVYYCVRHGNFGHSYVSWFAVWGQGTLVTVSS
VL: QAVVTQEPSLTVSPGGTVTLTCGSSTGAVTTSHYANWVQQKPGQAPRGLIGGTSKRAPWTPARFSGSLLGGKAALTLSGAQPEDEAEYYCALWYSALWVFGGGTKLTVL
[3]
  IC50: > 20 µg/mL

B16: huSP34.6.1 Fab-HF (Fab, V domains shown)
VH: EVQLVESGGGLVQPGGSLRLSCAASGFTFSTYAMNWVRQAPGKGLEWVGRIRSKYNNYATYYADSVKGRFTISRDNSKNTLYLQMNSLRAEDTAMYYCVRHGNFGNSYVSWFAVWGQGTLVTVSS
VL: QAVVTQEPSLTVSPGGTVTLTCRSSTGAVTTSNYANWVQQKPGQAPRGLIGGTNKRAPWTPARFSGSLIGDKAALTLSGAQPEDEAEYYCALWYSNLWVFGGGTKLTVL
[3]
  IC50: > 20 µg/mL

B17: huSP34.6.2 Fab-HF (Fab, V domains shown)
VH: EVQLVESGGGLVQPGGSLRLSCAASGFTFSTYAMNWVRQAPGKGLEWVGRIRSKYNNYATYYADSVKGRFTISRDNSKNTLYLQMNSLRAEDTAMYYCVRHGNFGNSYVSWFAVWGQGTLVTVSS
VL: QAVVTQEPSLTVSPGGTVTLTCGSSTGAVTTSNYANWVQQKPGQAPRGLIGGTSNRAPWTPARFSGSLLGGKAALTLSGAQPEDEAEYYCALWYSNLWVFGGGTKLTVL
[3]
  IC50: > 20 µg/mL

B18: huSP34.8.6 Fab-HF (Fab, V domains shown)
VH: EVQLVESGGGLVQPGGSLRLSCAASGFTFSDYAMNWVRQAPGKGLEWVGRTRSKYNNYATYYAASVKGRFTISRDDSKNSLYLQMNSLKTEDTAVYYCVRHGNFGHSYVSWFAVWGQGTLVTVSS
VL: QAVVTQPPSLTVSPGGTVTLTCGSSTGAVTTGHYANWVQQKPGQAPRGLIGGTSNRAPGVPARFSGSLSGGKAALTISGAQPEDEAEYYCALWYSARWVFGGGTKLTVL
[3]
  IC50: > 20 µg/mL

B19: huSP34.13.10 Fab-HF (Fab, V domains shown)
VH: EVQLVESGGGLVQPGGSLRLSCAASGFTFSTYAMNWVRQAPGKGLEWVGRIRSKYNNYATYYAASVKGRFTISRDDSKNTLYLQMNSLRTEDTAVYYCVRHGNFGHSYVSWFAYWGQGTLVTVSS
VL: QAVVTQPPSLTVSPGGTVTLTCGSSTGAVTTGHYANWVQQKPGQAPRGLIGGTNKRAPGVPARFSGSLSGGKAALTISGAQPEDEAEYYCALWYSNRWVFGGGTKLTVL
notes: also called HC13+LC10
[1]
  Kd: 1.7 nM
  koff: 0.00204 s⁻¹
  kon: 1.36e+06 M⁻¹ s⁻¹

B20: mSP34 Fab-HF v2 (Fab, V domains shown)
VH: EVKLLESGGGLVQPKGSLKLSCAASGFTFNTYAMNWVRQAPGKGLEWVARIRSKYNNYATYYADSVKDRFTISRDDSQSILYLQMNNLKTEDTAMYYCVRHGNFGNSYVSWFAYWGQGTLVTVSA
VL: QAVVTQESALTTSPGETVTLTCRSSTGAVTTSNYANWVQEKPDHLFTGLIGGTNKRAPGVPARFSGSLIGDKAALTITGAQTEDEAIYFCALWYSNLWVFGGGTKLTVLG
[1]
  Kd: 5.2 nM
  koff: 0.00266 s⁻¹
  kon: 532000 M⁻¹ s⁻¹
